In article PMC8298264, “Function of cofactor Akirin2 in the regulation of gene expression in model human neutrophil-like HL60 cells” (Bioscience Reports, 2021):

System: human HL60 cells
Assay: SWATH-MS proteomics, differential protein representation, akirin2 KO vs WT HL60 cells
Assay type: cell-based
Settings: akirin2 KO vs WT HL60 cells, sheet "Under-represented in KO"
Procedure, shortened: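 Differential representation compares akirin2 KO with WT HL60 across three biological replicates, 5 µg digest each, acquired by data-independent SWATH on a 120-min gradient. Library built from combined IDA runs searched with Paragon; proteins accepted at 1% FDR, with total-area-sum normalization.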

| Molecule | Fold Change (SWATH-MS) | Log (Fold Change) (SWATH-MS) | Fold Change | Log (Fold Change) |
| --- | --- | --- | --- | --- |
| sp¦Q52LJ0¦FA98B_HUMAN (protein, UniProt Q52LJ0 1-433, looked up) Protein FAM98B: MRGPEPGPQPTMEGDVLDTLEALGYKGPLLEEQALTKAAEGGLSSPEFSELCIWLGSQIKSLCNLEESITSAGRDDLESFQLEISGFLKEMACPYSVLISGDIKDRLKKKEDCLKLLLFLSTELQASQILQNKKHKNSQLDKNSEVYQEVQAMFDTLGIPKSTTSDIPHMLNQVESKVKDILSKVQKNHVGKPLLKMDLNSEQAEQLERINDALSCEYECRRRMLMKRLDVTVQSFGWSDRAKVKTDDIARIYQPKRYALSPKTTITMAHLLAAREDLSKIIRTSSGTSREKTACAINKVLMGRVPDRGGRPNEIEPPPPEMPPWQKRQEGGGGRGGWGGGGGGGGRGGGGGGGGRGGWGGGGGGWGGGGGGGGGWGGGGGGGRGGFQGRGDYGGRGGYGGRGGYGGRGYGDPYGGGGGGGGGGGGGGGYRRY | 0.7848 | -0.1053 |  |  |
| sp¦Q9BTE7¦DCNL5_HUMAN (protein, UniProt Q9BTE7 1-237, looked up) DCN1-like protein 5: MPVKKKRKSPGVAAAVAEDGGLKKCKISSYCRSQPPARLISGEEHFSSKKCLAWFYEYAGPDEVVGPEGMEKFCEDIGVEPENIIMLVLAWKLEAESMGFFTKEEWLKGMTSLQCDCTEKLQNKFDFLRSQLNDISSFKNIYRYAFDFARDKDQRSLDIDTAKSMLALLLGRTWPLFSVFYQYLEQSKYRVMNKDQWYNVLEFSRTVHADLSNYDEDGAWPVLLDEFVEWQKVRQTS | 0.7927 | -0.1009 |  |  |
| sp¦O95573¦ACSL3_HUMAN (protein, UniProt O95573 1-720, looked up) Fatty acid CoA ligase Acsl3: MNNHVSSKPSTMKLKHTINPILLYFIHFLISLYTILTYIPFYFFSESRQEKSNRIKAKPVNSKPDSAYRSVNSLDGLASVLYPGCDTLDKVFTYAKNKFKNKRLLGTREVLNEEDEVQPNGKIFKKVILGQYNWLSYEDVFVRAFNFGNGLQMLGQKPKTNIAIFCETRAEWMIAAQACFMYNFQLVTLYATLGGPAIVHALNETEVTNIITSKELLQTKLKDIVSLVPRLRHIITVDGKPPTWSEFPKGIIVHTMAAVEALGAKASMENQPHSKPLPSDIAVIMYTSGSTGLPKGVMISHSNIIAGITGMAERIPELGEEDVYIGYLPLAHVLELSAELVCLSHGCRIGYSSPQTLADQSSKIKKGSKGDTSMLKPTLMAAVPEIMDRIYKNVMNKVSEMSSFQRNLFILAYNYKMEQISKGRNTPLCDSFVFRKVRSLLGGNIRLLLCGGAPLSATTQRFMNICFCCPVGQGYGLTESAGAGTISEVWDYNTGRVGAPLVCCEIKLKNWEEGGYFNTDKPHPRGEILIGGQSVTMGYYKNEAKTKADFFEDENGQRWLCTGDIGEFEPDGCLKIIDRKKDLVKLQAGEYVSLGKVEAALKNLPLVDNICAYANSYHSYVIGFVVPNQKELTELARKKGLKGTWEELCNSCEMENEVLKVLSEAAISASLEKFEIPVKIRLSPEPWTPETGLVTDAFKLKRKELKTHYQADIERMYGRK |  |  | 0.3507 | -0.4551 |
| sp¦Q70J99¦UN13D_HUMAN (protein, UniProt Q70J99 1-1090, looked up) Protein unc-13 homolog D: MATLLSHPQQRPPFLRQAIKIRRRRVRDLQDPPPQMAPEIQPPSHHFSPEQRALLYEDALYTVLHRLGHPEPNHVTEASELLRYLQEAFHVEPEEHQQTLQRVRELEKPIFCLKATVKQAKGILGKDVSGFSDPYCLLGIEQGVGVPGGSPGSRHRQKAVVRHTIPEEETHRTQVITQTLNPVWDETFILEFEDITNASFHLDMWDLDTVESVRQKLGELTDLHGLRRIFKEARKDKGQDDFLGNVVLRLQDLRCREDQWYPLEPRTETYPDRGQCHLQFQLIHKRRATSASRSQPSYTVHLHLLQQLVSHEVTQHEAGSTSWDGSLSPQAATVLFLHATQKDLSDFHQSMAQWLAYSRLYQSLEFPSSCLLHPITSIEYQWIQGRLKAEQQEELAASFSSLLTYGLSLIRRFRSVFPLSVSDSPARLQSLLRVLVQMCKMKAFGELCPNTAPLPQLVTEALQTGTTEWFHLKQQHHQPMVQGIPEAGKALLGLVQDVIGDLHQCQRTWDKIFHNTLKIHLFSMAFRELQWLVAKRVQDHTTVVGDVVSPEMGESLFQLYISLKELCQLRMSSSERDGVLALDNFHRWFQPAIPSWLQKTYNEALARVQRAVQMDELVPLGELTKHSTSAVDLSTCFAQISHTARQLDWPDPEEAFMITVKFVEDTCRLALVYCSLIKARARELSSGQKDQGQAANMLCVVVNDMEQLRLVIGKLPAQLAWEALEQRVGAVLEQGQLQNTLHAQLQSALAGLGHEIRTGVRTLAEQLEVGIAKHIQKLVGVRESVLPEDAILPLMKFLEVELCYMNTNLVQENFSSLLTLLWTHTLTVLVEAAASQRSSSLASNRLKIALQNLEICFHAEGCGLPPKALHTATFQALQRDLELQAASSRELIRKYFCSRIQQQAETTSEELGAVTVKASYRASEQKLRVELLSASSLLPLDSNGSSDPFVQLTLEPRHEFPELAARETQKHKKDLHPLFDETFEFLVPAEPCRKAGACLLLTVLDYDTLGADDLEGEAFLPLREVPGLSGSEEPGEVPQTRLPLTYPAPNGDPILQLLEGRKGDREAQVFVRLRRHRAKQASQHALRPAP | 0.785 | -0.1051 |  |  |
| sp¦P43490¦NAMPT_HUMAN (protein, UniProt P43490 1-491, looked up) Nicotinamide …: MNPAAEAEFNILLATDSYKVTHYKQYPPNTSKVYSYFECREKKTENSKLRKVKYEETVFYGLQYILNKYLKGKVVTKEKIQEAKDVYKEHFQDDVFNEKGWNYILEKYDGHLPIEIKAVPEGFVIPRGNVLFTVENTDPECYWLTNWIETILVQSWYPITVATNSREQKKILAKYLLETSGNLDGLEYKLHDFGYRGVSSQETAGIGASAHLVNFKGTDTVAGLALIKKYYGTKDPVPGYSVPAAEHSTITAWGKDHEKDAFEHIVTQFSSVPVSVVSDSYDIYNACEKIWGEDLRHLIVSRSTQAPLIIRPDSGNPLDTVLKVLEILGKKFPVTENSKGYKLLPPYLRVIQGDGVDINTLQEIVEGMKQKMWSIENIAFGSGGGLLQKLTRDLLNCSFKCSYVVTNGLGINVFKDPVADPNKRSKKGRLSLHRTPAGNFVTLEEGKGDLEEYGQDLLHTVFKNGKVTKSYSFDEIRKNAQLNIELEAAHH | 0.7897 | -0.1025 |  |  |
| sp¦P50570¦DYN2_HUMAN (protein, UniProt P50570 1-870, looked up) Dynamin-2: MGNRGMEELIPLVNKLQDAFSSIGQSCHLDLPQIAVVGGQSAGKSSVLENFVGRDFLPRGSGIVTRRPLILQLIFSKTEHAEFLHCKSKKFTDFDEVRQEIEAETDRVTGTNKGISPVPINLRVYSPHVLNLTLIDLPGITKVPVGDQPPDIEYQIKDMILQFISRESSLILAVTPANMDLANSDALKLAKEVDPQGLRTIGVITKLDLMDEGTDARDVLENKLLPLRRGYIGVVNRSQKDIEGKKDIRAALAAERKFFLSHPAYRHMADRMGTPHLQKTLNQQLTNHIRESLPALRSKLQSQLLSLEKEVEEYKNFRPDDPTRKTKALLQMVQQFGVDFEKRIEGSGDQVDTLELSGGARINRIFHERFPFELVKMEFDEKDLRREISYAIKNIHGVRTGLFTPDLAFEAIVKKQVVKLKEPCLKCVDLVIQELINTVRQCTSKLSSYPRLREETERIVTTYIREREGRTKDQILLLIDIEQSYINTNHEDFIGFANAQQRSTQLNKKRAIPNQGEILVIRRGWLTINNISLMKGGSKEYWFVLTAESLSWYKDEEEKEKKYMLPLDNLKIRDVEKGFMSNKHVFAIFNTEQRNVYKDLRQIELACDSQEDVDSWKASFLRAGVYPEKDQAENEDGAQENTFSMDPQLERQVETIRNLVDSYVAIINKSIRDLMPKTIMHLMINNTKAFIHHELLAYLYSSADQSSLMEESADQAQRRDDMLRMYHALKEALNIIGDISTSTVSTPVPPPVDDTWLQSASSHSPTPQRRPVSSIHPPGRPPAVRGPTPGPPLIPVPVGAAASFSAPPIPSRPGPQSVFANSDLFPAPPQIPSRPVRIPPGIPPGVPSRRPPAAPSRPTIIRPAEPSLLD | 0.7916 | -0.1015 |  |  |
| sp¦O94874¦UFL1_HUMAN (protein, UniProt O94874 2-794, looked up) E3 UFM1-protein ligase 1: ADAWEEIRRLAADFQRAQFAEATQRLSERNCIEIVNKLIAQKQLEVVHTLDGKEYITPAQISKEMRDELHVRGGRVNIVDLQQVINVDLIHIENRIGDIIKSEKHVQLVLGQLIDENYLDRLAEEVNDKLQESGQVTISELCKTYDLPGNFLTQALTQRLGRIISGHIDLDNRGVIFTEAFVARHKARIRGLFSAITRPTAVNSLISKYGFQEQLLYSVLEELVNSGRLRGTVVGGRQDKAVFVPDIYSRTQSTWVDSFFRQNGYLEFDALSRLGIPDAVSYIKKRYKTTQLLFLKAACVGQGLVDQVEASVEEAISSGTWVDIAPLLPTSLSVEDAAILLQQVMRAFSKQASTVVFSDTVVVSEKFINDCTELFRELMHQKAEKEMKNNPVHLITEEDLKQISTLESVSTSKKDKKDERRRKATEGSGSMRGGGGGNAREYKIKKVKKKGRKDDDSDDESQSSHTGKKKPEISFMFQDEIEDFLRKHIQDAPEEFISELAEYLIKPLNKTYLEVVRSVFMSSTTSASGTGRKRTIKDLQEEVSNLYNNIRLFEKGMKFFADDTQAALTKHLLKSVCTDITNLIFNFLASDLMMAVDDPAAITSEIRKKILSKLSEETKVALTKLHNSLNEKSIEDFISCLDSAAEACDIMVKRGDKKRERQILFQHRQALAEQLKVTEDPALILHLTSVLLFQFSTHSMLHAPGRCVPQIIAFLNSKIPEDQHALLVKYQGLVVKQLVSQSKKTGQGDYPLNNELDKEQEDVASTTRKELQELSSSIKDLVLKSRKSSVTEE | 0.7911 | -0.1018 |  |  |
| sp¦Q86W42¦THOC6_HUMAN (protein, UniProt Q86W42 1-341, looked up) THO complex subunit 6: MERAVPLAVPLGQTEVFQALQRLHMTIFSQSVSPCGKFLAAGNNYGQIAIFSLSSALSSEAKEESKKPVVTFQAHDGPVYSMVSTDRHLLSAGDGEVKAWLWAEMLKKGCKELWRRQPPYRTSLEVPEINALLLVPKENSLILAGGDCQLHTMDLETGTFTRVLRGHTDYIHCLALRERSPEVLSGGEDGAVRLWDLRTAKEVQTIEVYKHEECSRPHNGRWIGCLATDSDWMVCGGGPALTLWHLRSSTPTTIFPIRAPQKHVTFYQDLILSAGQGRCVNQWQLSGELKAQVPGSSPGLLSLSLNQQPAAPECKVLTAAGNSCRVDVFTNLGYRAFSLSF | 0.7851 | -0.1051 |  |  |
| sp¦Q15006¦EMC2_HUMAN (protein, UniProt Q15006 2-297, looked up) ER membrane protein complex …: AKVSELYDVTWEEMRDKMRKWREENSRNSEQIVEVGEELINEYASKLGDDIWIIYEQVMIAALDYGRDDLALFCLQELRRQFPGSHRVKRLTGMRFEAMERYDDAIQLYDRILQEDPTNTAARKRKIAIRKAQGKNVEAIRELNEYLEQFVGDQEAWHELAELYINEHDYAKAAFCLEELMMTNPHNHLYCQQYAEVKYTQGGLENLELSRKYFAQALKLNNRNMRALFGLYMSASHIASNPKASAKTKKDNMKYASWAASQINRAYQFAGRSKKETKYSLKAVEDMLETLQITQS | 0.7911 | -0.1017 |  |  |
